From the nanobody polyreactivity screen of Harvey et al. (2022)

Assay: yeast display, Sf9 membrane polyspecificity reagent, FACS + sequencing; frameworks hold sequencing errors
How it was run: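 Galactose induction of a Saccharomyces cerevisiae BJ5465 synthetic nanobody display library ran 36–48 hours. The cells were then stained for 1 hour at 4 °C with 10% biotinylated, detergent-solubilized Sf9 membrane reagent, pulled down on streptavidin microbeads and FACS-sorted into low and high (top ~1%) gates on expression and reagent-binding fluorescence. Labels for polyreactivity follow the gate of origin.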

Row | Sequence | polyreactivity (PSR sort gate)
1 | QVQLVESGGGLVQAGGSLRLSCAASGSIFGIYAMGWYRQAPGKERELVATITGRGGSTYYADSVKGRFTISRDNAKNTVYLQMNSLKPEDTAVYYCNAGGRSARYFWGGYWGQGTQVTVSS | high polyreactivity
2 | QVQLVESGGGLVQAGGSLRLSCAASGSIFGIYARGWYRQAPGKEREFVATITLGGGNTYYADSVKGRFTISRDYAKNTVYLQMNSLKPEDTAVYYCAARYFGLKRYDDYWGQGTQVTVSS | high polyreactivity
3 | QVQLVESGGGLVQAGGSLRLSCAASGSIFGKNAMGWYRQAPGKERELVAAITWSGGSTYYADSVKGRFTISRDNAKNTVYLQMNSLKPEDTAVYYCNAVRVRVTSHRIRQLDYGYWGQGTQVTVSS | low polyreactivity
4 | QVQLVESGGGLVQAGGSLRLSCAASGSIFGKNAMGWYRQAPGKERELVASITWDGSSTYYADSVKGRFTISRDNAKNTVYLQMNSLKPEDTAVYYCNADYHVQYEYYPYDYWGQGTQVTVSS | low polyreactivity
5 | QVQLVESGGGLVQAGGSLRLSCAASGSIFGKYTMGWYRQAPGKERELVAAITSGGSTNYADSVKGRFTISRDNAKNSVYLQMNSLKPEDTSVYYCAAPGTWIPSSTECGDGYDYWGQGTQVTVSS | low polyreactivity
6 | QVQLVESGGGLVQAGGSLRLSCAASGSIFGLNAMGWYRQAPGKERELVAAISVSGTRTYYADSVKGRFTISRDNAKNTGYLQMNSLKPEDTAVYYCAAYSYSSSFGYRYDYWGQGTQVTVSS | high polyreactivity
7 | QVQLVESGGGLVQAGGSLRLSCAASGSIFGLYAMGWYRPAPGKERELVAAISRTGGSTYYADSVKGRFTLSRDNAKNTVYFQMHSLKPEETAVYYCAAKYQYTQYDYWGQGTQVTVSS | high polyreactivity
8 | QVQLVESGGGLVQAGGSLRLSCAASGSIFGLYAMGWYRQAPGKERELVAAISGSGSRTYYADSVKGRFTISRDNAKNTVYLQMNSLKPEDTAVYYCAADRYWYGVHASIYYYWGQGTQVTVSS | high polyreactivity
9 | QVQLVESGGGLVQAGGSLRLSCAASGSIFGLYGMGWYRPAAGKERELLAAITGRGGSTYYADSVKGRFTISRDNAKITVYLQMNSLKPEDTAVYYCAALRYTFAGRFDYWGQGTQVNVSS | high polyreactivity
10 | QVQLVESGGGLVQAGGSLRLSCAASGSIFGLYTMGWYRQAPGKERELVAAIDSGDSTNYADSVKGRFTISRDNEKNTVYLQMNSLKQEDTAVYYCNALGEYPYYSSFWYESWGQGTQVTVSS | low polyreactivity
11 | QVQLVESGGGLVQAGGSLRLSCAASGSIFGLYTMGWYRQAPGKERELVAAISGGGGSTYYADSVKGRFTISRDNAKNTVYLQMNSLKPEDTAVYYCAADLELSEWYDYWGQGTQVTVSS | low polyreactivity
12 | QVQLVESGGGLVQAGGSLRLSCAASGSIFGNNAMGWYRQAPGKERELVAAISSGGSTNYADSVKGRFTISRDNAKNTVYLQMNSLKPEDTAVYYCATYYFYPSWYLLYGEYNYWGQGTQVTVSS | low polyreactivity
13 | QVQLVESGGGLVQAGGSLRLSCAASGSIFGNNAMGWYRQAPGKERELVAAITSSGGSTYYADSVKGRFTISRDNAKNTVYLQMNSLKPEDTAVYYCATEWSGYTYWFYEWEYGYWGQGTQVTVSS | high polyreactivity
14 | QVQLVESGGGLVQAGGSLRLSCAASGSIFGNNAMGWYRQAPGKERELVAGINYSGGRTYYADSVKGRFTISRDNAKNTVYLQMNSLKPEDTAVYYCAADGHRQVGWWRFEYGYWGQGTQVTVSS | low polyreactivity
15 | QVQLVESGGGLVQAGGSLRLSCAASGSIFGNNAMGWYRQAPGKERELVATISYSGDSTYYADSVKGRFTISRDNAKNTVYLQMNSLKPEDTAVYYCAKQSDWVYKDRAYDYWGQGTQVTVSS | low polyreactivity
16 | QVQLVESGGGLVQAGGSLRLSCAASGSIFGPNAMGWYRQAPGKERELVAAITNGGRTNYADSVKGRFTISRDNAKNTVYLQMNSLKPEDTAVYYCNKARYGTDDYDYWGQGTQVTVSS | low polyreactivity
17 | QVQLVESGGGLVQAGGSLRLSCAASGSIFGPNAMGWYRQAPGKESELVAAITLSGGSTYYADSVKGRFTISRDNAKNTVYLQMYSLKPEDTAVYYCNADLLPADAPLWVTGGDYWGQGTQVTVTS | low polyreactivity
18 | QVQLVESGGGLVQAGGSLRLSCAASGSIFGPNSMGWYRQAPGKERELVAAISWTGGRTYYADSVKGRFTISRDNAKNTVYLQMNSLKPEDTAVYYCAVKGHPWGQGTQVTVSS | low polyreactivity
19 | QVQLVESGGGLVQAGGSLRLSCAASGSIFGPYAMGWYRQAPGKDRELVAAISLGGGSTSYADSVKGRFTISRDNAKNTVYIQMNSLKPEDTAVYYCNAEYYSGPYGYNGFDYWGQGTQVTVSS | low polyreactivity
20 | QVQLVESGGGLVQAGGSLRLSCAASGSIFGPYAMGWYRQAPGKERELVAAITWTGGRTYYADSVKGRFTISRDNAKNTVYLQMNSLKPVDTAVYDCAADYSPSTWYLYYTLYYYWGEGTQVTVSS | low polyreactivity
21 | QVQLVESGGGLVQAGGSLRLSCAASGSIFGPYAMGWYRQAPGKERELVARITLSAGNTYYADSVKGRFTISRDNAKNTVYLQMNSLKPEDTAVYYCAAKVYSKYWFVGNYWGQGRQVTVSS | high polyreactivity
22 | QVQLVESGGGLVQAGGSLRLSCAASGSIFGPYVMGWYRQAPGKEREFVAAIRGSGGSTYYADSVKGRFTISRDNAKNTVYLQMNSLKPEDTAVYYCNARLKYTLYYYWGQGTQVTVSS | high polyreactivity

Row | Sequence | polyreactivity (PSR sort gate)
23 | QVQLVESGGGLVQAGGSLRLSCAASGSIFGQYAMGCYRQAPGKERELVATISSSGGSTYYADSVKGRFTISRDNAKNTVYLQMNSLKPEDTAVYYCAADWTLDPSYGYYADDYWGQGTQVTVSS | low polyreactivity
24 | QVQLVESGGGLVQAGGSLRLSCAASGSIFGRNAMAWYRQAPGKERELVADIWNGGSTYYADSVNGRFTNSRDNAKNTVYFLMNSLKPEDTAVSYCNADADDDGRFGGYMKYDYWGQGTQVTVSS | low polyreactivity
25 | QVQLVESGGGLVQAGGSLRLSCAASGSIFGRNAMGWSRQAPGNERELVARISYIGGSTYYADSVKARFTISRDNAKTTVYLQMNSLKPEDTAVYYCAKRYGFRYKRMDYWGQGTQVTVSS | low polyreactivity
26 | QVQLVESGGGLVQAGGSLRLSCAASGSIFGRNAMGWYRQAPGKERELVAAISTSGGSTYYADSVKGRFTISRDNAKNTVYLQMNSLKPEDTAVYYCNAEQYTQLDVNLYDYWGQGTQVTVSS | low polyreactivity
27 | QVQLVESGGGLVQAGGSLRLSCAASGSIFGRNDMGWYRQAPGKERELVARITRGGSTNYADSVKGRFTISRDNAKNTVYLQMNSLKPEDTAVYYCAAGARQYRGVPDRYGYWGQGTQVTVSS | low polyreactivity
28 | QVQLVESGGGLVQAGGSLRLSCAASGSIFGRYAMGWYRPAPGKDRELVAAISDDSSTNYADSVKGRFTISRDNAKHNDYLQMHSLKPEVTAVYYCNADSWRYVAEGLWREYDYWGQGTQVTVSS | low polyreactivity
29 | QVQLVESGGGLVQAGGSLRLSCAASGSIFGRYAMGWYRQAPGKERELLAALTYRGGTTYYADSVKGRFTISRDNAKNTVYLQMNSLKPEDTAVYYCAAEGTWYYKYGYFAYYYWGQGTQVTVSS | low polyreactivity
30 | QVQLVESGGGLVQAGGSLRLSCAASGSIFGRYAMGWYRQAPGKERELVAAISSSGGRTYYADSVKGRFTISRDNAKNTVYLKMNSLKPEDTAVYYCNKDWYYLIPGYNYWGQGTQVTVSS | high polyreactivity
31 | QVQLVESGGGLVQAGGSLRLSCAASGSIFGRYAMGWYRQAPGKERELVANITSGDSTNYADSVKGRFTISRDNAKNTVYLQMNSRKPEDTAVYYCAAYRIGQYDYWGQGTQVTVSS | high polyreactivity
32 | QVQLVESGGGLVQAGGSLRLSCAASGSIFGRYAMGWYRQAPGKERELVASISRRCGSTYYADSVKGRFTISRDNAKNTVYLQMNRLKPEDTAVYDCNVAPWSASSANLEDYWGQGNQVTVSS | high polyreactivity
33 | QVQLVESGGGLVQAGGSLRLSCAASGSIFGRYAMGWYRQAPGTEREGVAAISRSCDNTSYADSVKGRFTISRDTAKNTVYLQMNSLKPEDSAVYYCNADRPFSLGQRKYVDFDEPYNYWGQGTQVTVSS | low polyreactivity
34 | QVQLVESGGGLVQAGGSLRLSCAASGSIFGRYAMGWYRQARGKERELVAAISWSGGSTYYADSVKGRFTISRDNAKNTVYLQMNSLKPEDTAVYYCAANYKYAYEYWGQGTQVTVSS | high polyreactivity
35 | QVQLVESGGGLVQAGGSLRLSCAASGSIFGRYVMGWYRQAPGTDRELVAAISGSGTSTYYADSVKGRFTISRDNAKNTVYLQMNSLKPEDTAVYYCAARDIKSSHDYDYWGQGTQVTVSS | low polyreactivity
36 | QVQLVESGGGLVQAGGSLRLSCAASGSIFGSNAMGWYRQAPGKERELVAAITSRGGSTYYADSVKGRFTISRDNAKNTVYLQMNSLKPEDTAVYYCAADYQSVGGAEYDYWGQGTQVTVSS | high polyreactivity
37 | QVQLVESGGGLVQAGGSLRLSCAASGSIFGSNTMGWYRQAPGKEREFVAAISFSGGSTYYADSVKGRFTISRDNAKNTVYLQLNSLKPEDTAVYYWAARQSRVGTSFYYSRRDYWGQGTEVTVSS | high polyreactivity
38 | QVQLVESGGGLVQAGGSLRLSCAASGSIFGSYAMGWNRQAPGKDREFVAGIDQSGSSTYYADSVKGRFTISRDNAKNTVYLQMNSLKPEDTAVYYCAARHRYRTYKMYYWGQGTQVTVSS | high polyreactivity
39 | QVQLVESGGGLVQAGGSLRLSCAASGSIFGSYAMGWYRQAPGKARELVAAISQSGSSTYYADSVKGRFTISRDNAKNTVSLQMNSLKPEDTAVYYCAADWRHLRYRGGLQYDYWGQGTQVTVSS | high polyreactivity
40 | QVQLVESGGGLVQAGGSLRLSCAASGSIFGSYAMGWYRQAPGKERELVAGITRRSGSTYYADSVKGRFTISRDNAKNTVYLQMNSLKPEDTAVYYCAADTWFGMDYWGQGTQVTVSS | high polyreactivity
41 | QVQLVESGGGLVQAGGSLRLSCAASGSIFGSYAMGWYRQAPGKERELVAGITRRSGSTYYADSVKGRFTISRDNAKNTVYLQMNSLKPEDTAVYYCNAQAYSRRWDARGDYWGQGTQVTVSS | high polyreactivity
42 | QVQLVESGGGLVQAGGSLRLSCAASGSIFGSYAMGWYRQAPGNERELVAAISKSGGNTYYADSVKGRFTISRDNAKNTVYLQMNSLKPEDTAVYYCAARYRFLRPKVNYWGQGTQVTVSS | high polyreactivity
43 | QVQLVESGGGLVQAGGSLRLSCAASGSIFGSYARGRYRQAPVKERELVAGITYRGSSTYYADSVKGRFTISRDKAKNTVYLQMNSLKPEDTAVYYCAADPVFDEYDYWGQGTQVTVSS | low polyreactivity
